Results reported in paper PMC2171753 (The Journal of Cell Biology, 2005).

B6: GST-EB1_(185-255) (domain or fragment, human, UniProt Q15691 185-255, looked up)
chain: GVGNGDDEAAELMQQVNVLKLTVEDLEKERDFYFGKLRNIELICQENEGENDPVLQRIVDILYATDEGFVI

Assays:
[1] = biological target: the molecule itself; assay: SEC
[2] = biological target: APC-GFP fusion construct, APC residues 2739–2831 (human, UniProt P25054 2739-2831); assay: pull-down
[3] = biological target: APC-GFP fusion construct, APC residues 2760–2831 (human, UniProt P25054 2760-2831); assay: pull-down
[4] = biological target: GFP-APC_(2744-2843) (human, UniProt P25054 2744-2843); assay: pull-down
Chain of GFP-APC_(2744-2843) (P25054 2744-2843): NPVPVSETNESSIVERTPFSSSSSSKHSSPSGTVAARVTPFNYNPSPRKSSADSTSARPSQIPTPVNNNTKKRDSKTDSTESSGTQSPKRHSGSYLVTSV

[5] = biological target: B6; assay: pull-down

B1: full-length EB1 F216A (natural protein, human, UniProt Q15691 1-268, looked up)
chain: MAVNVYSTSVTSDNLSRHDMLAWINESLQLNLTKIEQLCSGAAYCQFMDMLFPGSIALKKVKFQAKLEHEYIQNFKILQAGFKRMGVDKIIPVDKLVKGKFQDNFEFVQWFKKFFDANYDGKDYDPVAARQGQETAVAPSLVAPALNKPKKPLTSSSAAPQRPISTQRTAAAPKAGPGVVRKNPGVGNGDDEAAELMQQVNVLKLTVEDLEKERDAYFGKLRNIELICQENEGENDPVLQRIVDILYATDEGFVIPDEGGPQEEQEEY
stoichiometry N [1]: 2

B2: full-length EB1 F218A (natural protein, human, UniProt Q15691 1-268, looked up)
chain: MAVNVYSTSVTSDNLSRHDMLAWINESLQLNLTKIEQLCSGAAYCQFMDMLFPGSIALKKVKFQAKLEHEYIQNFKILQAGFKRMGVDKIIPVDKLVKGKFQDNFEFVQWFKKFFDANYDGKDYDPVAARQGQETAVAPSLVAPALNKPKKPLTSSSAAPQRPISTQRTAAAPKAGPGVVRKNPGVGNGDDEAAELMQQVNVLKLTVEDLEKERDFYAGKLRNIELICQENEGENDPVLQRIVDILYATDEGFVIPDEGGPQEEQEEY
stoichiometry N [1]: 2

B3: full-length EB1 Y217A (natural protein, human, UniProt Q15691 1-268, looked up)
chain: MAVNVYSTSVTSDNLSRHDMLAWINESLQLNLTKIEQLCSGAAYCQFMDMLFPGSIALKKVKFQAKLEHEYIQNFKILQAGFKRMGVDKIIPVDKLVKGKFQDNFEFVQWFKKFFDANYDGKDYDPVAARQGQETAVAPSLVAPALNKPKKPLTSSSAAPQRPISTQRTAAAPKAGPGVVRKNPGVGNGDDEAAELMQQVNVLKLTVEDLEKERDFAFGKLRNIELICQENEGENDPVLQRIVDILYATDEGFVIPDEGGPQEEQEEY
stoichiometry N [1]: 2

B4: full-length EB1 K220A (natural protein, human, UniProt Q15691 1-268, looked up)
chain: MAVNVYSTSVTSDNLSRHDMLAWINESLQLNLTKIEQLCSGAAYCQFMDMLFPGSIALKKVKFQAKLEHEYIQNFKILQAGFKRMGVDKIIPVDKLVKGKFQDNFEFVQWFKKFFDANYDGKDYDPVAARQGQETAVAPSLVAPALNKPKKPLTSSSAAPQRPISTQRTAAAPKAGPGVVRKNPGVGNGDDEAAELMQQVNVLKLTVEDLEKERDFYFGALRNIELICQENEGENDPVLQRIVDILYATDEGFVIPDEGGPQEEQEEY
stoichiometry N [1]: 2

B5: full-length EB1 E225A (natural protein, human, UniProt Q15691 1-268, looked up)
chain: MAVNVYSTSVTSDNLSRHDMLAWINESLQLNLTKIEQLCSGAAYCQFMDMLFPGSIALKKVKFQAKLEHEYIQNFKILQAGFKRMGVDKIIPVDKLVKGKFQDNFEFVQWFKKFFDANYDGKDYDPVAARQGQETAVAPSLVAPALNKPKKPLTSSSAAPQRPISTQRTAAAPKAGPGVVRKNPGVGNGDDEAAELMQQVNVLKLTVEDLEKERDFYFGKLRNIALICQENEGENDPVLQRIVDILYATDEGFVIPDEGGPQEEQEEY
stoichiometry N [1]: 2

B6
binding result [2]: binds | binding result [3]: binds | binding result [4]: binds

TPFNYNPSPRKSSADSTSARPSQIPTPVNNNTKKRDSKTDSTESSGTQSP (domain or fragment, human, UniProt P25054 2782-2831, looked up) [APC-GFP fusion construct, APC residues 2782–2831]
binding result [5]: binds
